# B1: bacteriophage T4 antisigma protein AsiA with a C-terminal hexahistidine tag (other)
# chain: MNKNIDTVREIITVASILIKFSREDIVENRANFIAFLNEIGVTHEGRKLNQNSFRKIVSELTQEDKKTLIDEFNEGFEGVYRYLEMYTNKHHHHHH
# notes: also called AsiAHis; AsiAHIS
# What was measured:
# [1] = molecular target: consolidated ligand NH2-PVpYENVG6>(…ONH2); test: fluorescence-based titration assay in solution
# [2] = molecular target: T1, cleavage product containing the first 567 amino acids of sigma-70 (E. coli, UniProt P00579 1-567); test: Ni2+-NTA agarose co-immobilization, SDS-PAGE
# T1 construct: range 1-567; also called ?^70 fragment
# Method: (§1) The indicated proteins were loaded onto Ni²⁺-NTA-agarose beads (L) and the unbound protein was removed (F). The beads were extensively washed and the bound protein was eluted with buffer containing 100 mM imidazole (E).
# (§2) A mixture of AsiAHis and recombinant σ⁷⁰ was loaded onto Ni²⁺-NTA agarose beads (lane 4) and the unbound material removed (lane 5). The beads were subsequently washed with 10 mM imidazole buffer and then eluted with 100 mM imidazole buffer.
# [3] = molecular target: T2, semisynthetic 600 amino acid-long sigma-70 derivative (ligation product of sigma-70 1-567 with the synthetic … (E. coli, UniProt P00579 1-567; P00579 568-600); test: Ni2+-NTA agarose co-immobilization, SDS-PAGE
# T2 construct: range 1-567;range 568-600; also called semisynthetic ?^70
# Method: as §1, §2
# [4] = molecular target: T3, E. coli RNA polymerase sigma-70 subunit, full-length recombinant (sigma is printed as a garbled character: … (E. coli, UniProt P00579 1-613)); test: Ni2+-NTA agarose co-immobilization, SDS-PAGE
# T3 construct: range 1-613; also called full-length ?^70; recombinant ?^70
# Method: as §1, §2
Molecule,Kd [1] [nM],binding result [2],binding result [3],binding result [4]
"Abl-[G^120C^121][SH2-^15N]SH(32), the ligation product of the Abl-SH3 and Abl-SH2 domains (from UniProt P00519 65-220)",300,–,–,–
B1,–,no binding,binds,binds

# From US20020151006A1 (ROCKEFELLER UNIVERSITY, published 2002)
